Publication PMC3932240 (Biochemistry, 2013)

Target: the molecule itself
Assay: SEC

B1: CpcS-III bilin lyase from Thermosynechococcus elongatus BP-1, C-terminally His-tagged (from pTER13-21) (enzyme, UniProt Q8DI91 1-182, looked up)
chain: MCIGMDIRDFFAQSAGRWFSQRTSHHLAFKQTESGKSQLTIELLSVDDPAVIALCQQYDMDPAWAVCGARVSWDGTMEWDNEKHEGSTVLVPIMDQGSRMEGKLLREMGYAEKAPVAGRFSMGSDGALTLITEYETIYSEERLWFASPNLRLRTSILKRFGGFSMASFCSEIRLGVTQPANS
modifications: selenomethionine-labeled in the sample that was crystallized
  stoichiometry N: 2
